Data set [1] deals with T1, p85α (Bos taurus, UniProt P23727). As to the kind of experiment: Binding of baculovirus expressed p85α to peptide columns. Further details: made in house; host or cells: Sf9 insect cells (baculovirus pAcC4-p85α); species or system bovine. The protocol:
(§1) Proteins were diluted in binding buffer (50 mM phosphate buffer (pH 7.2), 150 mM NaCl, 0.02% Triton X-100, 2 mM EDTA and 200 μM sodium orthovanadate), mixed with the appropriate peptide affinity resin and then allowed to bind for 2 h at 4° C. with rotation. The column material was washed repeatedly (>6×) with 50 column volumes of the same buffer and then with various elution buffers containing NaCl, urea or detergents. Bound proteins were either assayed for PI3-kinase activity or were removed from the column by boiling in SDS-PAGE sample buffer and then analysed by SDS-PAGE.
Baculovirus expressed bovine p85α and p85β were chosen to test these columns (Otsu et al, 1991).

The target in another data set is T2, bovine brain PI3-kinase (Bos taurus, UniProt P23727).
T2 construct: P13-kinase purified from bovine brain is a complex of p85α and p10; from tissue; host or cells: bovine brain
Briefly: Binding of partially purified bovine brain PI3-kinase to peptide affinity columns. The protocol: as §1

The nature of data set [2]: PI3-kinase assay on immunoprecipitates from baculovirus infected Sf9 cells. The settings on record: expressed in Sf9 cells. The data set is classed as biochemical. The method, then: (§2) The assay for PI3-kinase activity was carried out as described by Whitman et al. (1985).
To clone the p110 coding region into the baculovirus transfer vector p36C (Page, 1989) a Sau 3A1 site (GGATCA) present 10 nucleotides upstream from the initiation codon (see FIG. 9) was changed to a BamHI (GGATCC site by PCR mediated mutagenesis. Briefly, a sense oligonucleotide substituting C for A at position 6 of the Sau3A1 site was used in a PCR reaction with an antisense primer comprising nucleotides (102-124) of the p110 sequence. (see FIG. 9) using Vent polymerase (New England Biolabs). Template DNA was random-primed first strand cDNA prepared from SGBAF-1 cell mRNA as described above; PCR conditions: 94° C. 1 min, 50° C. 1 min, 72° C. 2 min, 35 cycles. The PCR product was digested with BamHl-EcoNl and a 118 bp fragment isolated from a low melting point agarose gel. […] The BamHl-EcoNl fragment of p110/(BamHl) was sequenced and found to agree with that previously determined. […] Cells were harvested and lysed 2 days post-infection in EB lysis buffer (20 mM Tris-HCl (pH 7.4), 50 mM NaCl, 50 mM NaF, 1% NP40, 1 mM EDTA, 500 μM sodium orthovanadate, 2 mM PMSF, 100 Kallikrein inhibitor units of Aprotinin ml^−1) (Kazlauskas and Cooper, 1989) and lysates were analysed by […].

The target of the next data set is T3, CSF-1 receptor (Homo sapiens, UniProt P07333).
T3 construct: made in house; host or cells: Sf9 insect cells (baculovirus)
Briefly: In vitro association of PI3-kinase activity with the CSF-1 receptor. In kind it is binding. The settings on record: Sf9 cell lysates, receptor phosphorylated with ATP before incubation. The method, then:
This assay was performed essentially as described by Kazlauskas and Cooper (1990). Sf9 cells were infected as already described and lysed 48 h post-infection in EB lysis buffer. CSF-1 receptor was immunoprecipitated from Sf9 cells and collected on Protein A-Sepharose beads. The immunocomplex was then subjected to extensive washing (3 times with EB lysis buffer, twice with kinase buffer; 50 mM HEPES (pH 7.4), 150 mM NaCl, 0.02% Triton X-100, 12 mM MgCl2, 2 mM MnCl2, 10% glycerol, 500 μM sodium orthovanadate) and the receptor phosphorylated for 15 min at 20° C. with ATP. The precipitates were then washed again to remove free ATP and incubated for 2 h at 4° C. with cell lysates prepared from Sf9 cells infected with viruses expressing (i) p85α, (ii) p110 or (iii) co-infected with viruses expressing p85α and p110. The immune complexes were washed and assayed for associated PI3-kinase activity.

A short description of data set [3]: PI3-kinase assay on immunoprecipitates from transfected COS-1 cells. In kind it is biochemical. The settings on record: anti-p110 antiserum. The method, then: as §2
For transient expression of p85α in COS-1 cells the coding region for p85α was cloned into the adenovirus late promoter based expression vector pMT2 (Kaufman et al, 1989) as previously described (Otsu et al, 1991). For expression of the p110 cDNA plasmid pSG5-p110 was constructed as follows. The 3.4 kb BamHl-HindIII fragment from cDNA p2.1 was ligated into pSG5 (Stratagene) cut with BamHl and BglII, the HindIII and BglII overhangs of p2.1 and pSG5 respectively, being filled in with Klenow polymerase. This gave construct pSG5.2. Plasmid pBS/race (above) was digested with EcoRl and Hindlll, the 350 bp band gel purified by electroelution (Maniatis et al, 1982) and further digested with Sau3Al and Bsml. This mixture was then added to the gel purified Bsml-BstMl fragment from p2.1 and ligated in a three fragment ligation to pSG5.2 digested with BamHl and BstXl. […] Lysates were analysed by immunoprecipitation with anti-p85α polyclonal antiserum or with anti-p110 C-terminal peptide antiserum. Immunocomplexes collected on Protein A-Sepharose beads were analysed either on 10% SDS-PAGE gels followed by autoradiography or subjected to in vitro PI3-kinase assays as described.

In a further data set the target is Y751 phosphopeptide. As to the kind of experiment: phosphopeptide affinity resin, single incubation; PI3-kinase assay.
For data set [4], the target named is T1, p85α. As to the kind of experiment: Retention of p85α by GST-p110 fragments on glutathione sepharose column. In kind it is binding. Further details: made in house; host or cells: baculovirus / insect cells. The settings on record: GST fusion protein expressed in bacteria. The text has this: (§3) The interation of the p85 and p110 subunits of PI3-kinase are thought to be required for the activity of the kinase in mammalian cells. Thus inhibiting the interaction between the subunits could provide a means of inhibiting the activity of this signal transduction pathway. In order to design reagents to p110 which will block the interaction, it is useful to define the region of […] which binds to the p85 subunits. To do this a series of mutants were constructed which express various domains of the […] protein (FIG. 23B). These fragments were expressed as GST fusion proteins in bacteria. The proteins were then bound to a glutathione sepharose column (Pharmicia) according to the manufacturer's instructions (Panayotou G et al (1992) Embo J 11:4261-4272). The ability of these protein fragments to bind the p85 subunits was assessed by the ability of the column specifically to retain p85 subunits purified from baculovirus (Otsu et al (1991) Cell 65:91-104). […] To further characterise the binding domain, deletion mutants and PCR fragments were made from the p110-N fragment as shown in FIG. 24. […] Removal of a further 20 amino acids from either the amino or carboxy termini led to loss of binding activity. Now that this domain has been identified it allows the design of specific peptides, antibodies or small molecules which can inhibit the interaction between the subunits.

A further data set addresses T4, p85β (Bos taurus, UniProt P23726).
T4 construct: made in house; host or cells: baculovirus / insect cells
As to the kind of experiment: Retention of p85β by GST-p110 fragments on glutathione sepharose column. In kind it is binding. The settings on record: GST fusion protein expressed in bacteria.
Source text: as §3

A further data set has as its target T5, bovine p85α (bovine, UniProt P23727 1-724).
T5 construct: Expressed by baculovirus in Sf9 cells or from pMT2-p85α in COS-1 cells, or native from bovine brain; which one is said under assay; also called 85 kD subunit; baculovirus expressed p85α
As to the kind of experiment: deletion mutants and PCR fragments of p110-N; retention of p85.
Source text: as §3

Another data set concerns the target T6, bovine p85β (bovine, UniProt P23726 1-724).
T6 construct: Expressed by baculovirus in Sf9 cells or in COS-1 cells; also called baculovirus expressed p85β
The description is as above.
Source text: as §3

Read-outs that look alike come from different tables or passages of the source.

T1 sequence (P23727 whole entry): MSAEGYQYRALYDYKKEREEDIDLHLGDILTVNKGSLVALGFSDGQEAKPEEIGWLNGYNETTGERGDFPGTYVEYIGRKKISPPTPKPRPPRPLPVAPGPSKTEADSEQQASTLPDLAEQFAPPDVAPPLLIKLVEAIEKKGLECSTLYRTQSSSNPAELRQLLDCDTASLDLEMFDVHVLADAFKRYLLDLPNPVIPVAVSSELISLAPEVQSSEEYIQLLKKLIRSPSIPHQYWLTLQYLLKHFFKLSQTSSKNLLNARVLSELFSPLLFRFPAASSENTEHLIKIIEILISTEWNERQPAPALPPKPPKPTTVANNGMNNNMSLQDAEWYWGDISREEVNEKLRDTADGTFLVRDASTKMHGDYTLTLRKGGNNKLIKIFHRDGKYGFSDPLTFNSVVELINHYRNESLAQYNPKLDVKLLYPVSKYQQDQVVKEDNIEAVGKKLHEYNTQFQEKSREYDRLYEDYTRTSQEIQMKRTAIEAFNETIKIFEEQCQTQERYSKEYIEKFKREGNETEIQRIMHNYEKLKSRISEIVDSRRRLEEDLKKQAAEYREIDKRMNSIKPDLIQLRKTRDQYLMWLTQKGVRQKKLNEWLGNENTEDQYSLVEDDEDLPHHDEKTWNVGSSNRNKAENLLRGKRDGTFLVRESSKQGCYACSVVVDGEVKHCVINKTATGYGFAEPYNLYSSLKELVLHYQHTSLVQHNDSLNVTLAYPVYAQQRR
T5 sequence (P23727 whole entry): as above
T4 sequence (P23726 whole entry): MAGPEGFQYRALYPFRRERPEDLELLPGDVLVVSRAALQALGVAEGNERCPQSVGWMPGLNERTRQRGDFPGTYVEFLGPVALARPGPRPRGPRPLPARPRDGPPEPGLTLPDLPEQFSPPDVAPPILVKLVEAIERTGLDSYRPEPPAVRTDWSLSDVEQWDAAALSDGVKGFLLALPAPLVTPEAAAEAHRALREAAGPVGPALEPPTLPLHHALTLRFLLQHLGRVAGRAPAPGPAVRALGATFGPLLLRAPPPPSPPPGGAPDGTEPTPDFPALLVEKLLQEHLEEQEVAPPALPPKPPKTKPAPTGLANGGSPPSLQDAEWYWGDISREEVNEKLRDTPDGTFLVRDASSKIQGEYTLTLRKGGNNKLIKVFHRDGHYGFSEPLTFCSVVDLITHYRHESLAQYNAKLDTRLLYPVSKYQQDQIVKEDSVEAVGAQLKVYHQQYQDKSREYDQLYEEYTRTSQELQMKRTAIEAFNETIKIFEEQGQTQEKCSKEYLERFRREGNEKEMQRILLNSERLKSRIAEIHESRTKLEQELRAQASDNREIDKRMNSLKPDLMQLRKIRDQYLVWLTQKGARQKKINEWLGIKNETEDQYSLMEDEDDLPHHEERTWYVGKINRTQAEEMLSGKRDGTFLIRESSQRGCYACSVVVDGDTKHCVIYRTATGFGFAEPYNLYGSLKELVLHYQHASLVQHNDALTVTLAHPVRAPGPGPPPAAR
T6 sequence (P23726 whole entry): as above
T3 sequence (P07333 20-972): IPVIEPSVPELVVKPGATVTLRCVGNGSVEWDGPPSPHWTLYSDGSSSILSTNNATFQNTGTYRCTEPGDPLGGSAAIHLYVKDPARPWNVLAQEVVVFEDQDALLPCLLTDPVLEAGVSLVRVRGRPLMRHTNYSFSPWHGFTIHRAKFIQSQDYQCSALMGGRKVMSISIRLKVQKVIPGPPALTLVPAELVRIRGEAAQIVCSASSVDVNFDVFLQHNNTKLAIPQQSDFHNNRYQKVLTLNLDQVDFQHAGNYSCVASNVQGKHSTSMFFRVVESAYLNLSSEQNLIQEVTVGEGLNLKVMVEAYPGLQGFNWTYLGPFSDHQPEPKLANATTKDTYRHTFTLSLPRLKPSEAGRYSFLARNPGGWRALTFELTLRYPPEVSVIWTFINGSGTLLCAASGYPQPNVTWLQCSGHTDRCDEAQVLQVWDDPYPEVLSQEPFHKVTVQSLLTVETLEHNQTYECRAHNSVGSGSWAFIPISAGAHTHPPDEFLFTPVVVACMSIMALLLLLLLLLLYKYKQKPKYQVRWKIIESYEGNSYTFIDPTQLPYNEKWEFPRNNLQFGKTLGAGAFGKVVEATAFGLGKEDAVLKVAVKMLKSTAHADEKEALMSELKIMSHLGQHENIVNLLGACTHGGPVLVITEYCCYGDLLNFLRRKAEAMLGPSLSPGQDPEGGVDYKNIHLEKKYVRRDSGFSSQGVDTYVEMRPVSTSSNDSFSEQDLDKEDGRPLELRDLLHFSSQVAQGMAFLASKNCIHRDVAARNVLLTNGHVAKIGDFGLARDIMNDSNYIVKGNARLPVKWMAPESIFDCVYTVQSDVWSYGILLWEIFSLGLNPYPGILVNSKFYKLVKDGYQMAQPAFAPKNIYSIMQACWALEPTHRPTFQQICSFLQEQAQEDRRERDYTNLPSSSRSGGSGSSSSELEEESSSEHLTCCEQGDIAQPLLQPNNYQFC
T2 sequence (P23727 whole entry): as the sequence (P23727 whole entry) above
T2 sequence (P32871 whole entry partner): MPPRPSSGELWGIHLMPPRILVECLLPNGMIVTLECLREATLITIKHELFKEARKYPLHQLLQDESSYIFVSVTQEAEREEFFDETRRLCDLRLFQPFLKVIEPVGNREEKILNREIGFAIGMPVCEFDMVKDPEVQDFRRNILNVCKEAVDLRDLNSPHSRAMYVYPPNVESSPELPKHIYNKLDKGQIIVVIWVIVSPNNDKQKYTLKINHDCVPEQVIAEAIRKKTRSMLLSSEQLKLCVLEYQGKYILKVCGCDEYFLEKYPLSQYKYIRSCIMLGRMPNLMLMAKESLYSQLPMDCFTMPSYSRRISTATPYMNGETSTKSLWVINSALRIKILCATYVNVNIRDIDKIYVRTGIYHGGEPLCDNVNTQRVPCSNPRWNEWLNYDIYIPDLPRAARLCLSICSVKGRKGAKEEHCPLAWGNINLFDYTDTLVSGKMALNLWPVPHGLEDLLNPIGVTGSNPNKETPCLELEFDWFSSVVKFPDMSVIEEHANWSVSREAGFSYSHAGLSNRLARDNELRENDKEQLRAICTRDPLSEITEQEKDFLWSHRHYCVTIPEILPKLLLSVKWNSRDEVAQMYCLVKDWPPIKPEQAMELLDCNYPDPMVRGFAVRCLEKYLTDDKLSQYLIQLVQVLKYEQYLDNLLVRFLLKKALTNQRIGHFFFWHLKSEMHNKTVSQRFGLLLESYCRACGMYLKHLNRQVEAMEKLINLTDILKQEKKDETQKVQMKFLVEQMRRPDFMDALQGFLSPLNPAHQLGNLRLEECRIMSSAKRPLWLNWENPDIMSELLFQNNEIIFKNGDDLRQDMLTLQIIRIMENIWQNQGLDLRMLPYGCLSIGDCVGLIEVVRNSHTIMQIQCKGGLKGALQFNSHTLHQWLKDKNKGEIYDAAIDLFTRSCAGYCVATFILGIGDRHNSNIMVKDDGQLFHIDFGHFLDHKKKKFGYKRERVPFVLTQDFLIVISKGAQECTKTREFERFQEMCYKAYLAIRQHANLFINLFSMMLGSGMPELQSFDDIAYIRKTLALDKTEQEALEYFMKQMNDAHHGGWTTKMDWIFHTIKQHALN

With “A R D I M R D S N Y I S K G S T F (ARDIMRDSNYISKGSTF) [Peptide Y587, 17 amino acid phosphopeptide around the second major tyrosine phosphorylation site in the PDGF β-receptor]”, the “binding of baculovirus expressed p85α to the peptide column” value with p85α [1] (Sf9 cell lysate, SDS-PAGE of bound proteins) is “bind both columns to a similar extent”. As for “D M S K D E S V D Y V P M L D M K [Y751 phosphopeptide]”, the “PI3-kinase activity removed from Mono Q peaks 1 or peak 2 by the column” value on bovine brain PI3-kinase is given as over 90%. Moreover, the “binding of baculovirus expressed p85α to the peptide column” value on p85α [1] was “bind both columns to a similar extent”. “p85α: 85 kD subunit of PI3-kinase, baculovirus expressed”: the “PI3-kinase activity of immunoprecipitates” value in data set [2] is “inactive”. Also, the “association of PI3-kinase activity with CSF-1 receptor” value with CSF-1 receptor was “No PI3-kinase activity associates”.

Take “p110: bovine PI3-kinase 110 kD subunit, 1068 amino acids, calculated molecular mass 124,247”: the “PI3-kinase activity of immunoprecipitates” value in data set [2] is recorded as “significant levels of PI3-kinase activity”. In the data set with CSF-1 receptor, the “association of PI3-kinase activity with CSF-1 receptor” value is “No PI3-kinase activity associates”. The “PI3-kinase activity of anti-p110 immunoprecipitates” value in data set [3] is “no activity above that present in control immunoprecipitates”. “partially purified bovine brain PI3-kinase (p85α/p110 complex) (from UniProt P23727 2-724; P32871 1-1068) (enzyme)” gave a PI3-kinase activity removed by the column with Y751 phosphopeptide of over 90%.

B1: amino acids 19-110 of human p10: domain of human p110, amino acids 19-110, from deletion mutants of p110-N (protein, UniProt P42336 19-110, looked up, fragment)
chain: RILVECLLPNGMIVTLECLREATLITIKHELFKEARKYPLHQLLQDESSYIFVSVTQEAEREEFFDETRRLCDLRLFQPFLKVIEPVGNREE
For B1, the “ability of p110 fragment to bind p85α subunit” value with p85α [4] is listed as “sufficient to associate with the p85 subunits”. Further, in the data set with p85β, the “ability of p110 fragment to bind p85β subunit” value is “sufficient to associate with the p85 subunits”.

B2: p110-N: GST fusion of human p110 fragment αα1-128 (protein)
chain: MPPRPSSGELWGIHLMPPRILVECLLPNGMIVTLECLREATLITIKHELFKEARKYPLHQLLQDESSYIFVSVTQEAEREEFFDETRRLCDLRLFQPFLKVIEPVGNREEKILNREIGFAIGMPVCEF
modifications: left off: a dimerising Fc or GST
Take B2: the “ability of p110 fragment to bind p85α subunit” value in the data set with p85α [4] is “capable of binding”. Moreover, in the data set with p85β, the “ability of p110 fragment to bind p85β subunit” value is on record as “capable of binding”.

B3: human p110 19-110 with a further 20 amino acids removed from the amino terminus (other)
chain: EATLITIKHELFKEARKYPLHQLLQDESSYIFVSVTQEAEREEFFDETRRLCDLRLFQPFLKVIEPVGNREE
notes: Limits 39-110 are calculated from 'Removal of a further 20 amino acids'
As to B3, the binding result in the data set with bovine p85α and with bovine p85β was “no binding” each time.

B4: human p110 19-110 with a further 20 amino acids removed from the carboxy terminus (other)
chain: RILVECLLPNGMIVTLECLREATLITIKHELFKEARKYPLHQLLQDESSYIFVSVTQEAEREEFFDETRRLC
notes: Limits 19-90 are calculated from 'Removal of a further 20 amino acids'
B4: the binding result in the data set with bovine p85α and with bovine p85β was “no binding” throughout.

For the origin of these results see patent publication US7422849B1, “Method for determining expression of a PI3 kinase gene” (Ludwig Institute for Cancer Research, priority 1992, dated 2008).
